Test results as given in article doi:10.1101/758797 (bioRxiv, 2019).

Target: VPS15 (human, UniProt Q99570 1-1358)
Experiment: cryo-EM structure

Sequence of VPS15 (Q99570 whole entry): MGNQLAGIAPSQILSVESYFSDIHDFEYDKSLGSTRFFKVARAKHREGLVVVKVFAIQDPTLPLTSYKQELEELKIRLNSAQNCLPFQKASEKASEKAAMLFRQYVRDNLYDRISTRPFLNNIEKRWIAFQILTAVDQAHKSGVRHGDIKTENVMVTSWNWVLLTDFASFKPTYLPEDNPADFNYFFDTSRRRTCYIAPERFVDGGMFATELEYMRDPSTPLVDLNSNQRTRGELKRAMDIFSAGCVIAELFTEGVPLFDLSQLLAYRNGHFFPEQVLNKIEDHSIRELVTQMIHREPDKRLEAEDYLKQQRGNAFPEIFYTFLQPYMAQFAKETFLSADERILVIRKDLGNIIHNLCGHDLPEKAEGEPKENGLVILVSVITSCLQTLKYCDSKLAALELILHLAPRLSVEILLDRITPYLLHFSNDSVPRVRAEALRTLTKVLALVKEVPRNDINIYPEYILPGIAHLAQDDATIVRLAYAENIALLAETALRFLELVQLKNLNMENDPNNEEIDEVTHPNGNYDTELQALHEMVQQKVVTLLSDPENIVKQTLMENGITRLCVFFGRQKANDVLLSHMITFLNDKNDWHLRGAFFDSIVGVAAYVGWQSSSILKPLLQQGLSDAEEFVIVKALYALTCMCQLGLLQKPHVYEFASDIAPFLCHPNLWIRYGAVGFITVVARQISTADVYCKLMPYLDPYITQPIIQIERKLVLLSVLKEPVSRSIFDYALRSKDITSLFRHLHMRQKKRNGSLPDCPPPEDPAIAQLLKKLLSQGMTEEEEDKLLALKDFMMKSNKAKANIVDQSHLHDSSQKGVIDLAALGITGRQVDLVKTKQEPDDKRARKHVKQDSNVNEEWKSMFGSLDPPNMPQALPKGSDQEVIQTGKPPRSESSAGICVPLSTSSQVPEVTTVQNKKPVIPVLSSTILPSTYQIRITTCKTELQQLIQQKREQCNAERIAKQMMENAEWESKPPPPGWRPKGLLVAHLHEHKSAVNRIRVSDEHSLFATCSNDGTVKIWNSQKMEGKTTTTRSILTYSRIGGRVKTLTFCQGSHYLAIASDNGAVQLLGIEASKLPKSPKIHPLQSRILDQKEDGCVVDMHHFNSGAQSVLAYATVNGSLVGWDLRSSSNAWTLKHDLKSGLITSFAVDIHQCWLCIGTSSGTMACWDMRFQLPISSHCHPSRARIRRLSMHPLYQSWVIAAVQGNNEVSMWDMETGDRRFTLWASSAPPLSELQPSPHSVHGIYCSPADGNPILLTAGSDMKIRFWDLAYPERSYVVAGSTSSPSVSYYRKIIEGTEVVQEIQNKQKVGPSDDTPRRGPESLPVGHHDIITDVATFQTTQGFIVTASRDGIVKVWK

binding result: binds
B1: NRBF2^MIT as fused in MIT-Fusion (NRBF2 residues 1-159, S113A, S120A) (domain or fragment)
chain: MEVMEGPLNLAHQQSRRADRLLAAGKYEEAISCHKKAAAYLSEAMKLTQSEQAHLSLELQRDSHMKQLLLIQERWKRAQREERLKAQQNTDKDAAAHLQTSHKPSAEDAEGQAPLSQKYAPSTEKCLPEIQGIFDRDPDTLLYLLQQKSEPAEPCIGSK
